This passage reports fold improvement in affinity over SH2-wt and fold improvement in affinity for sulfopeptide over phosphopeptide results from publication PMC8785239.

Where only a bound is given, the exact number is not on record here.

This assay addresses fluorescein-labeled sulfopeptide. Briefly: fluorescence polarisation. (In general: In fluorescence polarisation assays a small probe gives low polarisation when free and higher when bound to something large.)

For SH2-E38P (domain or fragment), the fold improvement in affinity over SH2-wt was determined as 17 fold.
In turn, SH2-S37H (domain or fragment) returned a fold improvement in affinity for sulfopeptide over phosphopeptide of 1.4 fold.
The same measure, in the same setting: then SH2-S37H/E38P (domain or fragment), with 6.6 fold.
For the substance SH2-T39F (domain or fragment), the fold improvement in affinity over SH2-wt is over 35 fold.
